Target: recombinant S. pombe eIF2B, one set of the five subunits (α, β, γ, δ, ε), tags cleaved (S. pombe) (UniProt Q9USP0)
Assay: SEC; purified complex after HRV 3C cleavage of the tags; Sephacryl S-300, then Superose 6 with HMW calibration kit, buffer C (20 mM HEPES-KOH pH 7.5, 150 mM KCl, 5 % glycerol, 1 mM DTT), 277 K; SDS-PAGE of the purified complex

stoichiometry N: 2
Substance: recombinant S. pombe eIF2B, one set of the five subunits (α, β, γ, δ, ε), tags cleaved, Q9USP0 1-341; Q9UT76 1-393; P56288 1-458; Q09924 1-467; P56287 1-678
